Laboratory results as given in paper PMC3908897.
Numbering of substitutions follows the chain as printed. In names and notes the source's numbering stands.

B1: T. elongatus OSBS (Thermosynechococcus vestitus BP-1) (protein)
chain: MRWQWRIYEEPLQEPLTTAQGVWRSRSGIYLRLEDEQGQVGYGEIAPLPGWGSETLNADIALCQQLPGHLTPEIMATIPEALPAAQFGFATAWQSVGRLPYRVRPWPICALLGSGQAALEQWQQSWQRGQTTFKWKVGVMSPEEEQAILKALLAALPPGAKLRLDANGSWDRATANRWFAWLDRHGNGKIEYVEQPLPPDQWQALLSLAQTVTTAIALDESVVSAAEVQRWVDRGWPGFFVIKTALFGDPDSLSLLLRRGLEPQRLVFSSALEGAIARTAIFHLLETWQPCHALGFGVDRWRSAPLLTTLTAYERLWERLDQ
B2: T. elongatus OSBS (Thermosynechococcus vestitus BP-1; G295A) (protein)
chain: B1 chain with G295A
B3: T. fusca OSBS (Thermobifida fusca YX; N71A) (protein)
chain: MTGRAFAIPLRTRFRGITVREGMLVRGAAGWGEFSPFAEYGPRECARWWAACYEAAELGWPAPVRDTVPVAATVPAVGPEEAARIVASSGCTTAKVKVAERGQSEANDVARVEAVRDALGPRGRVRIDVNGAWDVDTAVRMIRLLDRFELEYVEQPCATVDELAEVRRRVSVPIAADESIRRAEDPLRVRDAEAADVVVLKVQPLGGVRAALRLAEECGLPVVVSSAVETSVGLAAGVALAAALPELPYACGLATLRLLHADVCDDPLLPVHGVLPVRRVDVSEQRLAEVEIDPAAWQARLAAARAAWEQVEREPGP
B4: T. fusca OSBS (Thermobifida fusca YX; G252A) (protein)
chain: B3 chain with A71N, G252A
B5: T. fusca OSBS (Thermobifida fusca YX; R126M) (protein)
chain: B3 chain with A71N, R126M
B6: T. fusca OSBS (Thermobifida fusca YX) (protein)
chain: B3 chain with A71N
B7: T. fusca OSBS (Thermobifida fusca YX; G252T) (protein)
chain: B3 chain with A71N, G252T
B8: T. fusca OSBS (Thermobifida fusca YX; F37A) (protein)
chain: B3 chain with F37A, A71N
B9: T. fusca OSBS (Thermobifida fusca YX; R15A) (protein)
chain: B3 chain with R15A, A71N
B10: E. coli OSBS (Escherichia coli K-12; A107N) (protein)
chain: MRSAQVYRWQIPMDAGVVLRDRRLKTRDGLYVCLREGEREGWGEISPLPGFSQETWEEAQSVLLAWVNNWLAGDCELPQMPSVAFGVSCALAELTDTLPQAANYRANPLCNGDPDDLILKLADMPGEKVAKVKVGLYEAVRDGMVVNLLLEAIPDLHLRLDANRAWTPLKGQQFAKYVNPDYRDRIAFLEEPCKTRDDSRAFARETGIAIAWDESLREPDFAFVAEEGVRAVVIKPTLTGSLEKVREQVQAAHALGLTAVISSSIESSLGLTQLARIAAWLTPDTIPGLDTLDLMQAQQVRRWPGSTLPVVEVDALERLL
B11: E. coli OSBS (Escherichia coli K-12; L109T) (protein)
chain: B10 chain with N107A, L109T
B12: E. coli OSBS (Escherichia coli K-12; R20S) (protein)
chain: B10 chain with R20S, N107A

How the values were obtained:
Assay in all cases: purified protein
Conditions in all cases: 50 mM Tris pH 8.0, 0.1 mM MnCl2, 25°C
purified protein [1] = substrate: O=C(O)CCC(=O)C1=CC=C[C@@H](O)[C@@H]1C(=O)O; format: biochemical, Thermosynechococcus vestitus
purified protein [2] = substrate: O=C(O)CCC(=O)C1=CC=C[C@@H](O)[C@@H]1C(=O)O; format: biochemical, Thermobifida fusca
purified protein [3] = substrate: O=C(O)CCC(=O)C1=CC=C[C@@H](O)[C@@H]1C(=O)O; format: biochemical, Escherichia coli

Protein | Km (purified protein [2]) | kcat (purified protein [2]) | kcat/Km (purified protein [2]) | other results
B1 | – | – | – | Km (purified protein [1]): 78 ± 17 µM; kcat (purified protein [1]): 80 ± 4 s⁻¹; kcat/Km (purified protein [1]): 1e+06 M⁻¹ s⁻¹
B2 | – | – | – | Km (purified protein [1]): 304 ± 82 µM; kcat (purified protein [1]): 4 ± 0.4 s⁻¹; kcat/Km (purified protein [1]): 13000 M⁻¹ s⁻¹
B3 | 322 ± 56 µM | 10 ± 0.7 s⁻¹ | 31000 M⁻¹ s⁻¹ | –
B4 | 86 ± 6 µM | 16 ± 0.3 s⁻¹ | 190000 M⁻¹ s⁻¹ | –
B5 | 470 ± 42 µM | 104 ± 4 s⁻¹ | 220000 M⁻¹ s⁻¹ | –
B6 | 182 ± 22 µM | 122 ± 4.6 s⁻¹ | 670000 M⁻¹ s⁻¹ | –
B7 | 668 ± 72 µM | 13 ± 0.7 s⁻¹ | 19000 M⁻¹ s⁻¹ | –
B8 | 666 ± 151 µM | 163 ± 19 s⁻¹ | 250000 M⁻¹ s⁻¹ | –
B9 | 7 ± 1.4 µM | 0.6 ± 0.02 s⁻¹ | 86000 M⁻¹ s⁻¹ | –
B10 | – | – | – | Km (purified protein [3]): 109 ± 17 µM; kcat (purified protein [3]): 32 ± 1.9 s⁻¹; kcat/Km (purified protein [3]): 290000 M⁻¹ s⁻¹
B11 | – | – | – | Km (purified protein [3]): 83 ± 17 µM; kcat (purified protein [3]): 3.6 ± 0.3 s⁻¹; kcat/Km (purified protein [3]): 43000 M⁻¹ s⁻¹
B12 | – | – | – | Km (purified protein [3]): 22 ± 0.1 µM; kcat (purified protein [3]): 0.5 ± 0.1 s⁻¹; kcat/Km (purified protein [3]): 23000 M⁻¹ s⁻¹
